Laboratory results published in US20260022170A1 (ADAPTAM THERAPEUTICS S L, published 2026).
One block for each binder: values may come before it.

What was measured:
[1] = target: T1, recombinant Siglec-9 (SinoBiological, 30109-H03H) (human, UniProt Q9Y336 18-348); experiment: ELISA on coated ectodomains
T1 construct: also called ectodomain of Siglec-9; recombinant human Siglec-9 protein
Method: (§1) Next, the binding of anti-Siglec-9 monoclonal antibodies ED2D5, C1B613, BC3G5, and DH1A11 to the ectodomains of Siglec-9, Siglec-7, and a control was assessed using ELISA. An anti-Siglec-7 antibody control and isotype control were utilized. […] Antibody clones huCB6B3, mAbA, 68D4, and Tf73 also produced similar EC50 values.
(§2) To perform the ELISA experiments, 96-well plates were coated with recombinant Siglec-9 (SinoBiological, 30109-H03H) (100 μL) at 2 μg/mL in carbonate/bicarbonate buffer pH 9.6 overnight at 4° C., and washed with 250 μL of PBST (PBS, 0.1% Tween-20). Plates were blocked with blocking buffer (3% BSA in PBS) for 1 hour at room temperature, washed, and 100 μL of serially diluted anti-Siglec-9 antibodies-test antibodies, benchmarks, or control-starting at 66.64 nM (4-fold serial dilutions in PBST with 1% w/v non-fat milk), were added for 2 hours at RT. The plates were washed and incubated at room temperature with an anti-mouse IgG HRP detection antibody (1:5000, 1-hour, Anti-mouse IgG-HRP), followed by three washes of 250 μL of PBST, and two more with 400 μL of PBS, before the addition of 100 μL of TMB (Thermo Scientific) for 2-6 minutes. The reaction was stopped with 50 μL of Stop Solution (Thermo Scientific). The OD was measured at 450 nm in a multimode plate reader (Victor Nivo, PerkinElmer). OD values were plotted against antibody concentration, and data were analyzed using GraphPad Prism software.

[2] = target: T2, ectodomain of Siglec-7 (UniProt Q9Y286 19-353, limits assumed); experiment: ELISA on coated ectodomains
T2 construct: extracellular domain
Method: as §1, §2

[3] = target: T3, human Siglec-9 protein (recombinant; construct not stated) (human, UniProt Q9Y336 18-344, limits assumed); experiment: ELISA on recombinant Siglec-9
T3 construct: also called recombinant Siglec-9
Method: as §1
as §2, with “The reaction was stopped with 50 μL of Stop Solution (Thermo Scientific).” left out

[4] = target: Siglec-3 (UniProt P20138 18-259, limits assumed); experiment: BLI, antibody in Fab format
Method: (§3) BLI experiments were performed to assess binding of the generated anti-Siglec-9 antibodies to Siglec family members Siglec-3, Siglec-6, Siglec-7, Siglec-8, Siglec-9, and Siglec-10. The antibodies were tested in Fab format at 250 nM.

[5] = target: Siglec-6 (UniProt O43699 27-347, limits assumed); experiment: BLI, antibody in Fab format
Method: as §3

[6] = target: Siglec-7 (BLI) (UniProt Q9Y286 19-353, limits assumed); experiment: BLI, antibody in Fab format
Method: as §3

[7] = target: Siglec-8 (UniProt Q9NYZ4 17-363, limits assumed); experiment: BLI, antibody in Fab format
Method: as §3

[8] = target: T4, Siglec-10 (UniProt Q96LC7 17-546, limits assumed); experiment: BLI, antibody in Fab format
T4 sequence (looked up): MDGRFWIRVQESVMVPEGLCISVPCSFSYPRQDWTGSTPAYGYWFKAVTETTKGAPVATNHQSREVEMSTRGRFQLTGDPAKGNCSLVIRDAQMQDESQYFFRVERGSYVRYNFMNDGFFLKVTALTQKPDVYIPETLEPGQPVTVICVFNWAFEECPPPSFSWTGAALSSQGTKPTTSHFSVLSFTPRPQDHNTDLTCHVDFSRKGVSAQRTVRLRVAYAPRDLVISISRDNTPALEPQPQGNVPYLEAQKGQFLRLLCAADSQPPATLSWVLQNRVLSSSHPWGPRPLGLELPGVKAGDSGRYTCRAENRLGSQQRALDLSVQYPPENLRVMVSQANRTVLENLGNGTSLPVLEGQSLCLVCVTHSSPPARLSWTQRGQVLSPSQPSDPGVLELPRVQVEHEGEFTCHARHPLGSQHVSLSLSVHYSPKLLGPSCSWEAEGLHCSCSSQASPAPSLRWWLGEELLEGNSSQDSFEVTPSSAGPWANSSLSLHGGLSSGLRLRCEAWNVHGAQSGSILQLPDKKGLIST
Method: as §3

[9] = target: T3, human Siglec-9 protein (recombinant; …); experiment: ELISA, human Siglec-9 protein coated at 2 µg/mL, antibody titrated 0.4 pM to 400 nM
Method: The binding of the different IgG CB6B3 antibodies was analyzed via ELISA using human Siglec-9 protein as immobilized antigen (2 μg/mL). The different antibodies were titrated from 0.4 pM to 400 nM (FIG. 9). Human Siglec-9 protein was diluted in PBS pH 7.4 and coated overnight at 4° C. Remaining binding sites were blocked with PBS, 2% skimmed milk power (MPBS) for 2 hours. Bound murine IgG CB6B3 antibody was detected with an HRP-conjugated anti-mouse Fc secondary antibody (Sigma Aldrich A554; 1:5,000 dilution). All antibodies were diluted in MPBS. Incubation times were 1 hour each. TMB/H2O2 was used as substrate. […] Thus, the humanised antibodies retained antigen specificity and bound with similar potency to purified antigen in ELISA.

[10] = target: T3, human Siglec-9 protein (recombinant; …); experiment: BLI, antibody in Fab format at 250 nM
Method: as §3

T3 sequence (Q9Y336 18-344 limits assumed): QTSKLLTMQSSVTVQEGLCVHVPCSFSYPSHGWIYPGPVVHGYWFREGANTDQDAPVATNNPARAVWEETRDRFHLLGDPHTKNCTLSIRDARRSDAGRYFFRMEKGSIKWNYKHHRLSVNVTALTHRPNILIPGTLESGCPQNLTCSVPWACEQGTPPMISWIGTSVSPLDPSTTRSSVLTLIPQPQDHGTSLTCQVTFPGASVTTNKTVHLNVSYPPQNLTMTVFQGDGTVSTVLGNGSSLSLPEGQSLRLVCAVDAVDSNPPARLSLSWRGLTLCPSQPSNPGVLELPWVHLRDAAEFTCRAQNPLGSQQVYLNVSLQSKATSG
Siglec-7 (BLI), sequence (Q9Y286 19-353 limits assumed): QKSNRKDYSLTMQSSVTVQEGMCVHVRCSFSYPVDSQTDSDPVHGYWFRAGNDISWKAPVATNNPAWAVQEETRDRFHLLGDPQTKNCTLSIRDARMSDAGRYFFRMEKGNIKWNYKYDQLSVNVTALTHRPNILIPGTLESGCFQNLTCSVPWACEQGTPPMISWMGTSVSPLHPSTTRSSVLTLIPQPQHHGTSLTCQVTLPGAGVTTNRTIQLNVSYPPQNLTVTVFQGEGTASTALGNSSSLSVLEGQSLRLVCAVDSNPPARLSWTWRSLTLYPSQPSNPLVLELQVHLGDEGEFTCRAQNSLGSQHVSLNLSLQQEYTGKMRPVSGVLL
T2 sequence (Q9Y286 19-353 limits assumed): as above
Siglec-8, sequence (Q9NYZ4 17-363 limits assumed): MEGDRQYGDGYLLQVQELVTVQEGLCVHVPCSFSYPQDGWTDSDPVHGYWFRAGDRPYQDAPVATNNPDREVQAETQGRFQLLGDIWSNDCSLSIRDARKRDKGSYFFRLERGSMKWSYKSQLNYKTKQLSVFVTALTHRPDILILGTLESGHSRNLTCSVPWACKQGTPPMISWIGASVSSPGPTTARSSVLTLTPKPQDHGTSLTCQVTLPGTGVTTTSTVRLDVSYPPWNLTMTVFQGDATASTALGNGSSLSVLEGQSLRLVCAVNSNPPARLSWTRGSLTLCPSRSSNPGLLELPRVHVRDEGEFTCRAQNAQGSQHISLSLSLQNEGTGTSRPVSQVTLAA
Siglec-6, sequence (O43699 27-347 limits assumed): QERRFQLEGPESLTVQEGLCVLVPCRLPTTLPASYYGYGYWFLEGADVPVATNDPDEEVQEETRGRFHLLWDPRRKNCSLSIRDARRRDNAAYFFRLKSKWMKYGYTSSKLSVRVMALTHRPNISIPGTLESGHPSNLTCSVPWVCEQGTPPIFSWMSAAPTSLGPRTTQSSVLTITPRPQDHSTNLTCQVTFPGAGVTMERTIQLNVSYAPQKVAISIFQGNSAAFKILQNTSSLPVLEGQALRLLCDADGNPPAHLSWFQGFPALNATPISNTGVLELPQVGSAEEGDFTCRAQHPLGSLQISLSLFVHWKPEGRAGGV
Siglec-3, sequence (P20138 18-259 limits assumed): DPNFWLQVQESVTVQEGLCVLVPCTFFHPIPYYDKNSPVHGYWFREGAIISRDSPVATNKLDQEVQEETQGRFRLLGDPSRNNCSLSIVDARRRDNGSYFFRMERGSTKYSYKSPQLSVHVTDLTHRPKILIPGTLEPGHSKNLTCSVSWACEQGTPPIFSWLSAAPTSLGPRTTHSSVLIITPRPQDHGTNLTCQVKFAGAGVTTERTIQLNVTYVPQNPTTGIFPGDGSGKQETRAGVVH
T1 sequence (Q9Y336 18-348 limits assumed): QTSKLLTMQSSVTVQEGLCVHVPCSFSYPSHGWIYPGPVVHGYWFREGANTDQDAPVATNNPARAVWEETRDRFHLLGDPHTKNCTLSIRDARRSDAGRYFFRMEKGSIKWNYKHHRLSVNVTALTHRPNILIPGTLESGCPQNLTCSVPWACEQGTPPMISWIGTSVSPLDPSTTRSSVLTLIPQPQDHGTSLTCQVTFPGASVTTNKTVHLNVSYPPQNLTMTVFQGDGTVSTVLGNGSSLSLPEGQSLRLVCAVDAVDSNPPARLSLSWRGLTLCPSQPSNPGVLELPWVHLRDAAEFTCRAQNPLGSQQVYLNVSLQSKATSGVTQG

B1: anti-Siglec-9 monoclonal antibody clone CB6B3 (parental mouse antibody) (antibody, V domains shown)
VH: EVQLQQSGAEVVRPGALVKLSCKAAGFNIKDYFIHWVKQRPEQGLEWIGLIDPENDNTMYDPRFQVKASLTADTSSNTAYLQLSRLTSEDAAVYYCASTVVARSFDYWGQGTTLTVSS
VL: SIVMTQTPKFLLVSAGDRVTITCKASQSVSNDVAWYQQKSGQSPKLLIYYTSNRYTGVPDRFTGSGYGTDFTFTISTVQAEDLAVYFCQQDFRSPFTFGAGTKLELK
notes: Mouse hybridoma IgG; also called moIgG CB6B3; mouse IgG CB6B3
binding result [1]: binds
binding result [2]: no binding
binding result [3]: binds

B3: chimeric IgG1 CB6B3 (cIgG CB6B3) (antibody, V domains shown)
VH: B1 VH
VL: B1 VL
notes: Chimeric IgG1 of CB6B3 made in HEK293-6E cells; also called cIgG CB6Bb
binding result [9]: binds

Second part, the binder after the results:

binding result [4]: no binding (tested: 250 nM)
binding result [5]: no binding (tested: 250 nM)
binding result [6]: no binding (tested: 250 nM)
binding result [7]: no binding (tested: 250 nM)
binding result [8]: no binding (tested: 250 nM)
B2: CB6B3 in Fab format (Fab, V domains shown)
VH: B1 VH
VL: B1 VL
notes: Tested in Fab format in BLI; printed as 'C1B613', read as CB6B3; also called C1B613

binding result [4]: no binding (tested: 250 nM)
binding result [5]: no binding (tested: 250 nM)
binding result [6]: no binding (tested: 250 nM)
binding result [7]: no binding (tested: 250 nM)
binding result [8]: no binding (tested: 250 nM)
binding result [10]: binds
B4: ED2D5 in Fab format (Fab, V domains shown)
VH: EVQLVESGGGLVKPGGSLKLSCAASGFTFSDYYMYWVRQTPEKRLEWVATISDGGSDTYYPDNMKGRFTISRDNAKNNLYLQMSSLKSEDTAMYYCTRDPDYDDGRFAYWGQGTLVTVSA
VL: DIVMTQSHKFMSTSVGDRVSITCKASQDVGTVVAWYQQKSGQSPKLLIYWSSTRHTGVPDRFTGSGSGTDFTLTISNVQSEDLADYFCQQYIDYPLSFGAGTKLELK
notes: Tested in Fab format in BLI

binding result [1]: binds
binding result [2]: no binding
B5: anti-Siglec-9 monoclonal antibody clone ED2D5 (antibody, V domains shown)
VH: B4 VH
VL: B4 VL
notes: Mouse hybridoma monoclonal antibody
